# Where a chain is given by its changes, count along the chain named.
# B1: anti-mutCALR antibody clone 53 (antibody, human IgG1, lambda, V domains shown)
# VH: QVQLVQSGAEVKKPGASVKVSCKVSGYTLTELSMHWVRQAPGKGLEWMGGFDPEDGETIYAQKFQGRVTMTEDTSTDTAYMELSSLRSEDTAVYYCATDIQGLAEFDYWGQGTLVTVSS
# VL: QSALTQPRSVSGSPGQSVTISCTGTNTDVGAYIDVSWYQQHPGKAPKLIIYDVSKWPSGVPDRFSGSKSGNTASLTISGLQAEDEADYYCCSYAGNHSFSFGGGTKVTVLG
# notes: human IgG1; group 13
# B2: anti-mutCALR antibody clone 52 (antibody, human IgG1, kappa, V domains shown)
# VH: EVQLVQSGAEVKKPGASVKVSCKVSGYTLTELSMHWVRQAPGKGLEWMGLVDPEDGETIYAEKFQGRVTITADTSTDTAYMELSSPRSEDTAVYYCATTIGDDYFDYWGQGTLVTVSS
# VL: not shown
# B3: anti-mutCALR antibody clone 41 (antibody, human IgG1, lambda, V domains shown)
# VH: EVQLVQSGAEVKKPGASVKVSCKVSGYTLTELSMHWVRQAPGKGLEWMGLVDPEDGETIYAQKFQGRVTMTEDTSTDTAYMELSSLRSEDTAVYYCAREEWSGDGDDAFDIWGQGTMVTVSS
# VL: QSVLTQPPSVSAAPGQKVTISCSGSSSNIGSYSVSWYQQLPGTAPKLLIYDNNKRPSGIPDRFSGSNSGTSATLGITGLQTGDEADYYCGTWDSSLSAWVFGGGTKLTVLG
# notes: human IgG1; group 4
# B4: anti-mutCALR antibody clone 40 (antibody, human IgG1, lambda, V domains shown)
# VH: B3 VH with L32S
# VL: B3 VL
# notes: human IgG1; group 4
# B5: anti-mutCALR antibody clone 42 (antibody, human IgG1, lambda, V domains shown)
# VH: B3 VH
# VL: B3 VL with N52D, G75S
# notes: human IgG1; group 4
# B6: anti-mutCALR antibody clone 38 (antibody, human IgG1, kappa, V domains shown)
# VH: EVQPVQSGAEVKKPGSSVKVSCKASGGTFSSYAISWVRQAPGQGLEWMGLVDPEDGETIYAEKFRGRVTITADTSTDTAYMELSSLRSEDTAVYYCATEESYGPWGQGTLVTVSS
# VL: DIQLTQSPSSLSASVGDRVTITCQASQDISNYLNWYQQKPGKAPKLLIYDASNLETGVPSRFSGSGSGTEFTLTISSLQPEDFATYYCQQLNSYPLTFGGGTKLEIKR
# notes: human IgG1; group 3
# B7: anti-mutCALR antibody clone 39 (antibody, human IgG1, kappa, V domains shown)
# VH: B6 VH with P4L, R65Q
# VL: B6 VL with N34D
# notes: human IgG1; group 3
# B8: anti-mutCALR antibody clone 48 (antibody, human IgG1, lambda, V domains shown)
# VH: EVQLVQSGAEVKKPGSSVKVSCKASGGTFSSYAISWVRQAPGQGLEWMGGIIPIFGTANYAQKFQGRVTITADESTSTAYMELSSLRSEDTAVYYCASSPLRGSGWYWHYYYGMDVWGQGTTVTVSS
# VL: SYVLTQPPSVSVAPGKTARITCGGNNIGSKSVHWYQQKPGQAPVLVIYQDRKRPSGIPERFSGSNSGNTATLTISGTQAMDEADYYCQAWDSSTAVFGGGTKLTVLG
# B9: anti-mutCALR antibody clone 49 (antibody, human IgG1, lambda, V domains shown)
# VH: B8 VH
# VL: SYELTQPPSVSVAPGKTARITCGGNNIRAKHVHWYQQKPGQSPVLVIYQDSKRPSGIPERFSGSNSGSTATLTISRVEAGDEADYYCQVWDSSTVVFGGGTKLTVLG
# B10: anti-mutCALR antibody clone 47 (antibody, human IgG1, lambda, V domains shown)
# VH: B8 VH
# VL: B9 VL with N26K, R28G, A29T, H31S, S42A, Q49R, K52N, S68N, V77A, E78Q
# B11: anti-mutCALR antibody clone 44 (antibody, human IgG1, lambda, V domains shown)
# VH: B8 VH
# VL: B8 VL with V12A, T21S, G28R, P39A, R51S, S93N, A95V
# B12: anti-mutCALR antibody clone 51 (antibody, human IgG1, lambda, V domains shown)
# VH: B8 VH
# VL: B8 VL with V3E, N26K, S29T, R51S, D91G, A95V
# B13: anti-mutCALR antibody clone 43 (antibody, human IgG1, lambda, V domains shown)
# VH: B8 VH with S16A
# VL: not shown
# B14: anti-mutCALR antibody clone 45 (antibody, human IgG1, lambda, V domains shown)
# VH: B8 VH
# VL: SYVLTQPLSVSVAPGQTARITCGGNNIGRKSVHWYQQKPGQAPVLVIYRDSNRPSGIPERFSGSNSGNTATLTISRAQAGDEADYYCQVWDSSTVVFGGGTKLTVLG
# B15: anti-mutCALR antibody clone 46 (antibody, human IgG1, lambda, V domains shown)
# VH: B8 VH with E1Q
# VL: B8 VL with V3E, G28R, I47V, R51S, A89V
# B16: anti-mutCALR antibody clone 50 (antibody, human IgG1, lambda, V domains shown)
# VH: B8 VH with E1Q, V2M
# VL: B8 VL with S29T, A42S, A89V, A95E
# B17: anti-mutCALR antibody clone 19 (antibody, human IgG1, lambda, V domains shown)
# VH: EVQLVQSGAEVKKPGASVKVSCKVSGYTLTELSMQWVRQAPGKGLEWMGGFDPDDGETMYAEKFQGRLTVTEDTPTDTVYMELRSLTSEDTALYFCATSPGYDFFDYWGQGTLVTVSS
# VL: SYVLTQPLSVSVALGQTARITCGGSNIGDIRVHWYQQKPGQAPVLVVYDDSDRPSGIPERFSGSNSGNTATLTINRVEAGDEADYYCQVWDSSNDLLIFGGGTKLTVLG
# notes: human IgG1; group 1
# B18: anti-mutCALR antibody clone 25 (antibody, human IgG1, lambda, V domains shown)
# VH: B17 VH with P75S
# VL: B17 VL with V3E, L8P, S11A, L14P, S25N, D29R, I30K, R31A
# notes: human IgG1; group 1
# B19: anti-mutCALR antibody clone 20 (antibody, human IgG1, lambda, V domains shown)
# VH: B17 VH with P75S
# VL: B17 VL with L8P, L14P, Q16K, S25N, D29S, I30K, R31G
# notes: human IgG1; group 1
# B20: anti-mutCALR antibody clone 22 (antibody, human IgG1, lambda, V domains shown)
# VH: B17 VH with P75S
# VL: B17 VL with L8P, L14P, Q16K, S25N, D29S, I30K, R31N
# notes: human IgG1; group 1
# B21: anti-mutCALR antibody clone 28 (antibody, human IgG1, lambda, V domains shown)
# VH: B17 VH with P75S
# VL: SYELTQPPSVSVAPGQTARITCGGNNIGSKSVHWYQQKPGQAPVLVVYDDSDRPSGIPERFSGSNSGNTATLTISRVEAGDEADYYCQVWDADSDQLIFGGGTKLTVLG
# notes: human IgG1; group 1
# B22: anti-mutCALR antibody clone 27 (antibody, human IgG1, lambda, V domains shown)
# VH: B17 VH with P75S
# VL: B17 VL with L8P, L14P, S25N, D29I, I30K, R31S, S51R
# notes: human IgG1; group 1
# B23: anti-mutCALR antibody clone 24 (antibody, human IgG1, lambda, V domains shown)
# VH: B17 VH with F64L, P75S
# VL: B21 VL with E3V, Q16K, S75N, A92S, D93S, S94N, Q96L
# notes: human IgG1; group 1
# B24: anti-mutCALR antibody clone 30 (antibody, human IgG1, lambda, V domains shown)
# VH: B17 VH with P75S
# VL: B17 VL with L8P, L14P, Q16K, R19T, S25N, D29T, I30K, R31S
# notes: human IgG1; group 1
# B25: anti-mutCALR antibody clone 11 (antibody, human IgG1, lambda, V domains shown)
# VH: B17 VH with Q3R, P75S
# VL: QSALTQPRSVSGSPGQSVTISCTGTSSDVGGYNYVSWYQQHPGKAPKLMIYDVSKRPSGVPDRFSGSNSGNTATLTINRVEAGDEADYYCQVWDSSNDLLIFGGGTKLTVLG
# notes: human IgG1; group 1
# B26: anti-mutCALR antibody clone 29 (antibody, human IgG1, lambda, V domains shown)
# VH: B17 VH with P75S
# VL: B21 VL with E3V, Q16K, A92S, D93S, Q96L, T103A
# notes: human IgG1; group 1
# B27: anti-mutCALR antibody clone 21 (antibody, human IgG1, lambda, V domains shown)
# VH: B17 VH with K23E, P75S
# VL: B21 VL with E3V, I20V, T21S, H33N, Q36R, V47I, A92S, D93S, S94N, Q96L
# notes: human IgG1; group 1
# B28: anti-mutCALR antibody clone 26 (antibody, human IgG1, lambda, V domains shown)
# VH: B17 VH with P75S
# VL: B21 VL with E3V, A92S, D93S, S94I, Q96H, L105V
# notes: human IgG1; group 1
# B29: anti-mutCALR antibody clone 23 (antibody, human IgG1, lambda, V domains shown)
# VH: B17 VH with P75S
# VL: B17 VL with L8P, L14P, S25N, D29I, I30K, R31S
# notes: human IgG1; group 1
# B30: anti-mutCALR antibody clone 33 (antibody, human IgG1, lambda, V domains shown)
# VH: QVQLVQSGAEVKKPGATVKISCKVSGYSFTDYFIHWVQQAPGKGLAWVGLVDPEDGETIYAEKFQGRVTITADTSTDTAYMELSSLRSEDTAVYYCATPGGILTDPDAFDIWGQGTMVTVSS
# VL: QSALTQPRSVSGSPGQSVTISCAGTGSDVGGYNHVSWYQHHPGKAPKLMIYDVNKRPSGVPDRFSGSKSGNTASLTISGLQAEDEADYYCSSYIPSSTRWVFGGGTKLTVLG
# notes: human IgG1; group 2
# B31: anti-mutCALR antibody clone 34 (antibody, human IgG1, lambda, V domains shown)
# VH: B30 VH
# VL: QSALTQPASVSGSPGQSITISCTGTSSDVGGYNYVSWYQQHPGKAPKLMIYEVSNRPSGVSNRFSGSKSGNTASLTISGLQAEDEADYYCSSYTSSSTYVFGTGTKVTVLG
# notes: human IgG1; group 2
# Target: MBP protein (UniProt P0AEX9 27-392 = MBP)
# Assay: SPR (Biacore 8K), antibody captured on anti-human IgG (Fc), MBP injected
# Description: Experiment 1: Recombinant MBP-mutCALR Type 1 fusion protein was custom made at Cepter (cepterbiopartners.com). Data for the interaction of antibodies with recombinant MBP-mutCALR Type 1 fusion protein were collected at 25° C. on a Biacore 8K instrument (Cytiva, Marlborough, Mass.), and all reagents were obtained from Cytiva unless otherwise specified. The experiments were conducted using Tris-buffered saline (pH 7.2), 0.005% Surfactant P20, 1 mM CaCl₂) as running buffer. To prepare the capture surfaces, anti-human IgG (Fc) antibodies (Product #29234600) was amine-coupled onto a CM4 chip (Product #BR100534) under standard conditions using an Amine Coupling Kit (Product #BR100050). […] The kinetics parameters were obtained by applying 1:1 binding model to fit the data from multiple-cycle injection experiments using Biacore Insight Evaluation software.
row,Binder,binding result
1,B1,no binding (tested: 250 nM)
2,B2,no binding (tested: 250 nM)
3,B3,no binding (tested: 250 nM)
4,B4,no binding (tested: 250 nM)
5,B5,no binding (tested: 250 nM)
6,B6,no binding (tested: 250 nM)
7,B7,no binding (tested: 250 nM)
8,B8,no binding (tested: 250 nM)
9,B9,no binding (tested: 250 nM)
10,B10,no binding (tested: 250 nM)
11,B11,no binding (tested: 250 nM)
12,B12,no binding (tested: 250 nM)
13,B13,no binding (tested: 250 nM)
14,B14,no binding (tested: 250 nM)
15,B15,no binding (tested: 250 nM)
16,B16,no binding (tested: 250 nM)

row,Binder,binding result
1,B17,no binding (tested: 250 nM)
2,B18,no binding (tested: 250 nM)
3,B19,no binding (tested: 250 nM)
4,B20,no binding (tested: 250 nM)
5,B21,no binding (tested: 250 nM)
6,B22,no binding (tested: 250 nM)
7,B23,no binding (tested: 250 nM)
8,B24,no binding (tested: 250 nM)
9,B25,no binding (tested: 250 nM)
10,B26,no binding (tested: 250 nM)
11,B27,no binding (tested: 250 nM)
12,B28,no binding (tested: 250 nM)
13,B29,no binding (tested: 250 nM)
14,B30,no binding (tested: 250 nM)
15,B31,no binding (tested: 250 nM)
